Test results published in publication doi:10.1101/2024.05.17.594718 (bioRxiv, 2024).

Target: LysP-GFP (Pseudomonas aeruginosa PAO1 LysP fused to GFP-His8) (Pseudomonas aeruginosa strain PAO1, UniProt Q9HVG3)
Assay: GFP thermal shift

B1: nanobody Nb5755 (VHH)
VHH: QVQLQESGGGLVQGGSLRLSCAASGRTFSIYGMAWVRQASGKEREFVAAMPRGGGTTNYADSVKGRFSISRDNAKNTVDLQMNSLKPEDTAVYYCVADRGFTLRLGIQHDYWGQGTQVTVSS
increase in melting temperature: 20 °C
